Reference: patent US12584107B2 (dated 2026)

T1: NY-ESO-1 peptide on HLA-A*02:01 (human)
T1 peptide: SLLMWITQC


Columns and labels:
[1] = target: T1, NY-ESO-1 peptide on HLA-A*02:01; assay: multimer staining
[2] = target: T1, NY-ESO-1 peptide on HLA-A*02:01; assay: activation reporter or marker

| binding result [1] | binding result [2] | Binder |
| --- | --- | --- |
| recognises |  | NY7JSY (TCR, V domains shown) Valpha: QKEVEQNSGPLSVPEGAIASLNCTYSDRGSQSFFWYRQYSGKSPELIMFIYSNGDKEDGRFTAQLNKASQYVSLLIRDSQPSDSATYLCAVMRAGGFKTIFGAGTRLFVKA Vbeta: DSGVTQTPKHLITATGQRVTLRCSPRSGDLSVYWYQQSLDQGLQFLIQYYNGEERAKGNILERFSAQQFPDLHSELNLSSLELGDSALYFCASSVVDGEQYFGPGTRLTVT |
|  | recognises | NY7 variant TCR ID 5 (Table A) (TCR, V domains shown) Valpha: QKEVEQNSGPLSVPEGAIASLNCTYSDRWSQSFFWYRQYSGKSPELIMFIYSNGDKEDGRFTAQLNKASQYVSLLIRDSQPSDSATYLCAVMRAGGFKTIFGAGTRLFVKA Vbeta: DSGVTQTPKHLITATGQRVTLRCSPRSGDLSVYWYQQSLDQGLQFLIQYYNGEERAKGNILERFSAQQFPDLHSELNLSSLELGDSALYFCASSVVDGEQYFGPGTRLTVT |
